Assay results reported in patent US20260193326A1.

B1: A4-B2 (bispecific antibody)
chain: VQLQESGGGLVQAGGSLRLSCAASGSRFSINTMGWYRQAPGKQREFVATVTRGGNTNYAESVKGRFTISRDNAKNTVYLQMNSLRPEDTAVYYCHVDEVRDSSWTTSNIWGQGTQVTVSSGGGGSGGGGSGGGGSVQLQESGGGLVQAGGSLRLSCAASGSTFSINTMGWYRQAPGKQRELVATITRGGNTNYADSVKGRFTISRDNAKNTVYLQMNSLRPEDTAVYYCHVDEVRQSSWTTSNLWGQGTQVTVSS
B2: A4-C5 (bispecific antibody)
chain: VQLQESGGGLVQPGGSLRLSCAASGSNFRINTMGWYRQAPGKQRELVATVTRGGSTNYADSVKGRFTISRDNPKNTVYLQMNSLRPEDTAVYYCHVDEVRESSWTTSNLWGQGTQVTVSSGGGGSGGGGSGGGGSVQLQESGGGLVQPGGSLRLSCAASGSNFSINTMGWYRQAPGKQRELVATVTRGGDTNYADSVKGRFTISRDNAKNTVYLQMNSLRPEDTAVYYCHVDEIRESSWTTSNLWGQGTQVTVSSGGGGSGGGGSGGGGSVQLQESGGGLVQPGGSLRLSCAASGSNFRINTMGWYRQAPGKQRELVATVTRGGSTNYADSVKGRFTISRDNPKNTVYLQMNSLRPEDTAVYYCHVDEVRESSWTTSNLWGQGTQVTVSS
B3: A4-C8 (bispecific antibody)
chain: VQLQESGGGLVQPGGSLRLSCAASGSNFRINTMGWYRQAPGKQRELVAPVTRGGSTNYADSVKGRFTISRDNAKNTVYLQMNSLRPEDTAVYYCHVDEVRESSWTTSNLWGQGTQVTVSSGGGGSGGGGSGGGGSVQLQESGGGLVQPGGSLRLSCAASGSNFSINTMGWYRQAPGKQRELVATVTRGGDTNYADSVKGRFTISRDNAKNTVYLQMNSLRPEDTAVYYCHVDEIRESSWTTSNLWGQGTQVTVSSGGGGSGGGGSGGGGSVQLQESGGGLVQPGGSLRLSCAASGSNFSINTMGWYRQAPGKQRELVAALTRGGSTNYADSVKGRFTISRDNAKNTVYLQMNSLRPEDTAVYYCHVDEVRESSWTTSNLWGQGTQVTVSS
B4: A4-C6 (bispecific antibody)
chain: VQLQESGGGLVQPGGSLRLSCAASGSNFRINTMGWYRQAPGKQRELVAPVTRGGSTNYADSVKGRFTISRDNAKNTVYLQMNSLRPEDTAVYYCHVDEVRESSWTTSNLWGQGTQVTVSSGGGGSGGGGSGGGGSVQLQESGGGLVQPGGSLRLSCAASGSNFSINTMGWYRQAPGKQRELVAALTRGGSTNYADSVKGRFTISRDNAKNTVYLQMNSLRPEDTAVYYCHVDEVRESSWTTSNLWGQGTQVTVSSGGGGSGGGGSGGGGSVQLQESGGGLVQPGGSLRLSCAASGSNFSINTMGWYRQAPGKQRELVATVTRGGDTNYADSVKGRFTISRDNAKNTVYLQMNSLRPEDTAVYYCHVDEIRESSWTTSNLWGQGTQVTVSS
B5: A4-C9 (bispecific antibody)
chain: VQLQESGGGLVQPGGSLRLSCAASGSNFSINTMGWYRQAPGKQRELVATVTRGGDTNYADSVKGRFTISRDNAKNTVYLQMNSLRPEDTAVYYCHVDEIRESSWTTSNLWGQGTQVTVSSGGGGSGGGGSGGGGSVQLQESGGGLVQPGGSLRLSCAASGSNFSINTMGWYRQAPGKQRELVAALTRGGSTNYADSVKGRFTISRDNAKNTVYLQMNSLRPEDTAVYYCHVDEVRESSWTTSNLWGQGTQVTVSSGGGGSGGGGSGGGGSVQLQESGGGLVQPGGSLRLSCAASGSNFRINTMGWYRQAPGKQRELVAPVTRGGSTNYADSVKGRFTISRDNAKNTVYLQMNSLRPEDTAVYYCHVDEVRESSWTTSNLWGQGTQVTVSS
B6: A4-C2 (VHH)
chain: VQLQESGGGLVQPGGSLRLSCAASGSAFSINTMGWYRQAPGKQRELVASVTPGGSTNYADSVKGRFTISRDNAKNTIYLQMNSLRPEDTAVYYCHLDEVRESSWTTSNLWGQGTQVTVSSGGGGSGGGGSGGGGSVQLQESGGGLVQPGGSLRLSCAASGSAFSINTMGWYRQAPGKQRELVASVTPGGSTNYADSVKGRFTISRDNAKNTIYLQMNSLRPEDTAVYYCHLDEVRESSWTTSNLWGQGTQVTVSSGGGGSGGGGSGGGGSVQLQESGGGLVQPGGSLRLSCAASGSAFSINTMGWYRQAPGKQRELVASVTPGGSTNYADSVKGRFTISRDNAKNTIYLQMNSLRPEDTAVYYCHLDEVRESSWTTSNLWGQGTQVTVSS
B7: A4-C7 (bispecific antibody)
chain: VQLQESGGGLVQPGGSLRLSCAASGSNFSINTMGWYRQAPGKQRELVATVTRGGDTNYADSVKGRFTISRDNAKNTVYLQMNSLRPEDTAVYYCHVDEIRESSWTTSNLWGQGTQVTVSSGGGGSGGGGSGGGGSVQLQESGGGLVQPGGSLRLSCAASGSNFRINTMGWYRQAPGKQRELVAPVTRGGSTNYADSVKGRFTISRDNAKNTVYLQMNSLRPEDTAVYYCHVDEVRESSWTTSNLWGQGTQVTVSSGGGGSGGGGSGGGGSVQLQESGGGLVQPGGSLRLSCAASGSSFTINTMGWYRQAPGKQRELVAAVTRGGSTNYAGSVKGRFTISRDNAKNTIYLQMNSLRPEDTAVYYCHVDEIRQSSWTTSNLWGQGTQVTVSS
B8: A4-C4 (bispecific antibody)
chain: VQLQESGGGLVQAGGSLRLSCAASGSRFSINTMGWYRQAPGKQREFVATVTRGGNTNYAESVKGRFTISRDNAKNTVYLQMNSLRPEDTAVYYCHVDEVRDSSWTTSNIWGQGTQVTVSSGGGGSGGGGSGGGGSVQLQESGGGLVQAGGSLRLSCAASGSRFSINTMGWYRQAPGKQREFVATVTRGGNTNYAESVKGRFTISRDNAKNTVYLQMNSLRPEDTAVYYCHVDEVRDSSWTTSNIWGQGTQVTVSSGGGGSGGGGSGGGGSVQLQESGGGLVQPGGSLRLSCAASGSNFRINTMGWYRQAPGKQRELVATVTRGGSTNYADSVKGRFTISRDNPKDTVYLQMNSLRPEDTAVYYCHVDEVRESSWTTSNLWGQGTQVTVSS
B9: A4-C3 (bispecific antibody)
chain: VQLQESGGGLVQPGGSLRLSCAASGSIFSINLMGWYRQAPGKQRELVATITRGGNTNYAGSVKGRFTISRDNAKNTVYLQMNSLRPEDTAVYYCHVDEVRQSSWTTSNLWGQGTQVTVSSGGGGSGGGGSGGGGSVQLQESGGGLVQPGGSLRLSCAASGSIFSINLMGWYRQAPGKQRELVATITRGGNTNYAGSVKGRFTISRDNAKNTVYLQMNSLRPEDTAVYYCHVDEVRQSSWTTSNLWGQGTQVTVSSGGGGSGGGGSGGGGSVQLQESGGGLVQPGGSLRLSCAASGSNFRINTMGWYRQAPGKQRELVATVTRGGSTNYADSVKGRFTISRDNPKDTVYLQMNSLRPEDTAVYYCHVDEVRESSWTTSNLWGQGTQVTVSS
B10: A4-B1 (VHH)
chain: VQLQESGGGLVQPGGSLRLSCAASGSIFSINLMGWYRQAPGKQRELVATITRGGNTNYAGSVKGRFTISRDNAKNTVYLQMNSLRPEDTAVYYCHVDEVRQSSWTTSNLWGQGTQVTVSSGGGGSGGGGSGGGGSVQLQESGGGLVQPGGSLRLSCAASGSIFSINLMGWYRQAPGKQRELVATITRGGNTNYAGSVKGRFTISRDNAKNTVYLQMNSLRPEDTAVYYCHVDEVRQSSWTTSNLWGQGTQVTVSS
B11: A4-C1 (VHH)
chain: VQLQESGGGLVQPGGSLRLSCAASGSGFSINTMGWYRQAPGKQRELVATVTRDGSTNYADFVKGRFTISRDNAKNTVYLQMNSLRPEDTAVYYCHLDEVRESSWTTSNLWGQGTQVTVSSGGGGSGGGGSGGGGSVQLQESGGGLVQPGGSLRLSCAASGSGFSINTMGWYRQAPGKQRELVATVTRDGSTNYADFVKGRFTISRDNAKNTVYLQMNSLRPEDTAVYYCHLDEVRESSWTTSNLWGQGTQVTVSSGGGGSGGGGSGGGGSVQLQESGGGLVQPGGSLRLSCAASGSGFSINTMGWYRQAPGKQRELVATVTRDGSTNYADFVKGRFTISRDNAKNTVYLQMNSLRPEDTAVYYCHLDEVRESSWTTSNLWGQGTQVTVSS

Columns and labels:
Experiment in all cases: SPR, AAV on CM5 chip
[1] = biological target: AAV8 (adeno-associated virus serotype 8)
[2] = biological target: AAV9 (adeno-associated virus serotype 9)
[3] = biological target: AAV5 (adeno-associated virus serotype 5)

Binder	Kd [1]	koff [1]	kon [1]	Kd [2]	koff [2]	kon [2]	Kd [3]	koff [3]	kon [3]
B1	1.02 nM	0.00014 s⁻¹	138000 M⁻¹ s⁻¹	8.35 nM	0.0008 s⁻¹	95800 M⁻¹ s⁻¹	7.38 nM	0.00117 s⁻¹	159000 M⁻¹ s⁻¹
B2	4.97 nM	0.00091 s⁻¹	183000 M⁻¹ s⁻¹	1.68 nM	0.0002 s⁻¹	119000 M⁻¹ s⁻¹	7.86 nM	0.0013 s⁻¹	165000 M⁻¹ s⁻¹
B3	2.81 nM	0.00037 s⁻¹	132000 M⁻¹ s⁻¹	0.279 nM	5e-05 s⁻¹	179000 M⁻¹ s⁻¹	0.69 nM	0.00013 s⁻¹	188000 M⁻¹ s⁻¹
B4	2.67 nM	0.00044 s⁻¹	165000 M⁻¹ s⁻¹	0.55 nM	2.5e-05 s⁻¹	45400 M⁻¹ s⁻¹	0.785 nM	0.000139 s⁻¹	177000 M⁻¹ s⁻¹
B5	1.14 nM	0.00013 s⁻¹	114000 M⁻¹ s⁻¹	0.669 nM	0.00013 s⁻¹	194000 M⁻¹ s⁻¹	0.777 nM	5e-05 s⁻¹	64300 M⁻¹ s⁻¹
B6	0.359 nM	5e-05 s⁻¹	139000 M⁻¹ s⁻¹	0.486 nM	0.000125 s⁻¹	257000 M⁻¹ s⁻¹	0.691 nM	0.000134 s⁻¹	194000 M⁻¹ s⁻¹
B7	3.7 nM	0.00047 s⁻¹	127000 M⁻¹ s⁻¹	0.127 nM	1.75e-05 s⁻¹	137000 M⁻¹ s⁻¹	0.0732 nM	3.2e-05 s⁻¹	437000 M⁻¹ s⁻¹
B8	2.36 nM	0.00025 s⁻¹	106000 M⁻¹ s⁻¹	1.87 nM	0.00031 s⁻¹	165000 M⁻¹ s⁻¹	6.72 nM	0.00121 s⁻¹	180000 M⁻¹ s⁻¹
B9	0.534 nM	4e-05 s⁻¹	74900 M⁻¹ s⁻¹	0.491 nM	9e-05 s⁻¹	183000 M⁻¹ s⁻¹	0.628 nM	9e-05 s⁻¹	143000 M⁻¹ s⁻¹
B10	1.63 nM	0.000154 s⁻¹	94500 M⁻¹ s⁻¹	0.715 nM	0.00014 s⁻¹	196000 M⁻¹ s⁻¹	0.102 nM	1.23e-05 s⁻¹	121000 M⁻¹ s⁻¹
B11	9.2 nM	0.00164 s⁻¹	178000 M⁻¹ s⁻¹	1.03 nM	1e-05 s⁻¹	9690 M⁻¹ s⁻¹	13.2 nM	0.00138 s⁻¹	104000 M⁻¹ s⁻¹
